According to patent publication US20130336988A1, “METHODS FOR TREATING EARLY STAGE OR MILD NEUROLOGICAL DISORDERS” (NEW YORK UNIVERSITY, priority 2010, published 2013):

Key:
[1] = tested on: Cortical neurons expressing p75^NTR; assay: Growth cone collapse in cortical neurons; assay type: cell-based, mouse; conditions: cortical neurons expressing p75NTR (not shown)
Protocol: Primary hippocampal and cortical neurons were isolated from E15 C57BL/6 mouse embryos as previously described (PEREIRA, D. B. et al., Journal of Neuroscience 27:4859-4869 (2007)). Briefly, neurons were dissociated by incubation with 0.05% trypsin at 37° C. for 8 min followed by trituration with fire-polished glass Pasteur pipettes. Cells were plated on poly-D-lysine coated dishes and grown in Neurobasal medium containing B27, 0.5 mM glutamine (all Invitrogen) and 10 μM 5-fluorodeoxyuridine. Hippocampal neurons were transfected at DIV2 using Lipofectamine2000 (Invitrogen). For coverslips in a 24-well plate, 0.5 μg plasmid were mixed with 0.5 μl Lipofectamine2000, and for glass bottom dishes, 1.5 μg plasmid were mixed with 1.5 μl Lipofectamine2000. The complexes were added to the cells for 30-45 min, and then neurons were placed back into preconditioned media until analysis the following day. HT1080 cells were grown in DMEM/10% fetal bovine serum (both Invitrogen) and transfected using the AMAXA nucleofector (Lonza) according to manufacturer's instructions. 293FT cells were grown in DMEM/10% fetal bovine serum and transfected with Lipofectamine2000 according to manufacturer's instructions.

SorCS2 = target: T1, SorCS2 (Homo sapiens, UniProt Q96PQ0); assay: Co-immunoprecipitation of proNT with SorCS2 in transfected 293 cells; assay type: binding; conditions: 293 cells co-transfected with proNT and myc-SorCS2; IP-Western blot
T1 construct: expressed in transfected cells; host or cells: HEK 293 cells (proBDNF) / 293T cells (proNGF)
T1 sequence (Q96PQ0 51-1159): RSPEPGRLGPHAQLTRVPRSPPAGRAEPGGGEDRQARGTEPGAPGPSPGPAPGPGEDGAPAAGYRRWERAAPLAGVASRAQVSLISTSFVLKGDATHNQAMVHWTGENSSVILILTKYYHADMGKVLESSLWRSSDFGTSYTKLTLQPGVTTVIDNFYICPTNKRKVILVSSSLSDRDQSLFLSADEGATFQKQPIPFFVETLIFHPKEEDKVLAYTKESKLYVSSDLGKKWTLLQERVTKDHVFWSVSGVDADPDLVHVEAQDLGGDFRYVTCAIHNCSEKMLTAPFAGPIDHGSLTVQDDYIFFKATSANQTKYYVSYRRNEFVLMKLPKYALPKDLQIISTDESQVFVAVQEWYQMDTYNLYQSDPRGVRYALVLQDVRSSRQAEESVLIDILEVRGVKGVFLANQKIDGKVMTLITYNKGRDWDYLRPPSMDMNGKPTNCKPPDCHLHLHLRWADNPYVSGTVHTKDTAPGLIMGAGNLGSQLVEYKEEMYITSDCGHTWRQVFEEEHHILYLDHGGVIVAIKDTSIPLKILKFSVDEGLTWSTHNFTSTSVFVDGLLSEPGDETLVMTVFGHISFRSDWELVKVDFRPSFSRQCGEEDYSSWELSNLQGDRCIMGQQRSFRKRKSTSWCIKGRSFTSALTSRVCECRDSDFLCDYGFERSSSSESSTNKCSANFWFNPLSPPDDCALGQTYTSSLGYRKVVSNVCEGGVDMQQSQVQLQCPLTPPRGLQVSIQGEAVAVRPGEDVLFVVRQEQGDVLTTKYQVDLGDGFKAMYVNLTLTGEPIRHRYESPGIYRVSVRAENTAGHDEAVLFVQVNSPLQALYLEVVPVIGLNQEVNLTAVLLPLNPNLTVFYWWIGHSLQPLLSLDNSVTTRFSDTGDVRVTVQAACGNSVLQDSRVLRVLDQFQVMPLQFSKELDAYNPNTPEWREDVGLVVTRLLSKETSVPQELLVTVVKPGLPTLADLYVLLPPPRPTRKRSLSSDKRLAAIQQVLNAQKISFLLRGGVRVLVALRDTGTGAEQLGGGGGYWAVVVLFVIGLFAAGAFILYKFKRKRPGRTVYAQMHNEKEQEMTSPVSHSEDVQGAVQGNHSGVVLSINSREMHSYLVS
Protocol: FIG. 2A-G. ProNTs induce growth cone collapse. (A, B) DIV3 hippocampal neurons transfected with LifeAct-RFP were imaged by time-lapse microscopy before (top panel) and starting approximately 2 min after (bottom panel) treatment with proBDNF (A) or proNGF (B). Actin dynamics stalled upon proNT treatment and subsequently the growth cone collapsed. Time is indicated in (min:sec). Scale bars, 10 μm. (C, D) DIV3 hippocampal cultures were fixed and stained for p75^NTR (C) and SorCS2 (D). Arrows highlight growth cones. Scale bars, 20 μm. (E) Brain sections from 6-week old C57/BL6 mice were stained for SorCS2. DG, dentate gyrus. Arrows highlight expression in dentate granule dendrites. Scale bar, 200 μm. (F) Both sortilin and SorCS2 interact with proBDNF. HEK 293 cells were transfected with proBDNF-HA and myc-sortilin or mycSorCS2, lysates were immunoprecipitated with anti-HA agarose and analyzed by Western blot with indicated antibodies. (G) IP-WB from 293T cells showing interactions between proNGF and sortilin and SorCS2.
The LifeAct sequence (RIEDL, J. et al., Nat Methods 5:605-607 (2008)) was cloned into the pEGFP-N1 backbone (Clontech) using the BglII and BamHI restriction sites. Trio constructs were described previously (FERRARO, F. et al., Mol Biol Cell 18:4813-4825 (2007)), human sortilin cDNA or human SorCS2 cDNA was subcloned into the pcDNA3.1 hygro expression vector (Invitrogen). […]

Row | Molecule | growth cone collapse in cortical neurons [1] | interaction with SorCS2 (co-immunoprecipitation) (SorCS2)
1 | proNGF: proneurotrophin precursor of nerve growth factor, produced in Sf9 cells and purified | displayed growth cone collapse | co-immunoprecipitated with both sortilin and SorCS2
2 | proBDNF: murine proBDNF collected from supernatants of transfected 293 cells (protein) APMKEVNVHGQGNLAYPGVRTHGTLESVNGPRAGSRGLTTTSLADTFEHVIEELLDEDQKVRPNEENHKDADLYTSRVMLSSQVPLEPPLLFLLEEYKNYLDAANMSMRVRRHSDPARRGELSVCDSISEWVTAADKKTAVDMSGGTVTVLEKVPVSKGQLKQYFYETKCNPMGYTKEGCRGIDKRHWNSQCRTTQSYVRALTMDSKKRIGWRFIRIDTSCVCTLTIKRGR | – | interact
